From article PMC2744139 (Nature structural & molecular biology, 2009)

Target: T1, Cdc13 full-length (FL) (S. cerevisiae, UniProt P32797 1-924)
T1 sequence: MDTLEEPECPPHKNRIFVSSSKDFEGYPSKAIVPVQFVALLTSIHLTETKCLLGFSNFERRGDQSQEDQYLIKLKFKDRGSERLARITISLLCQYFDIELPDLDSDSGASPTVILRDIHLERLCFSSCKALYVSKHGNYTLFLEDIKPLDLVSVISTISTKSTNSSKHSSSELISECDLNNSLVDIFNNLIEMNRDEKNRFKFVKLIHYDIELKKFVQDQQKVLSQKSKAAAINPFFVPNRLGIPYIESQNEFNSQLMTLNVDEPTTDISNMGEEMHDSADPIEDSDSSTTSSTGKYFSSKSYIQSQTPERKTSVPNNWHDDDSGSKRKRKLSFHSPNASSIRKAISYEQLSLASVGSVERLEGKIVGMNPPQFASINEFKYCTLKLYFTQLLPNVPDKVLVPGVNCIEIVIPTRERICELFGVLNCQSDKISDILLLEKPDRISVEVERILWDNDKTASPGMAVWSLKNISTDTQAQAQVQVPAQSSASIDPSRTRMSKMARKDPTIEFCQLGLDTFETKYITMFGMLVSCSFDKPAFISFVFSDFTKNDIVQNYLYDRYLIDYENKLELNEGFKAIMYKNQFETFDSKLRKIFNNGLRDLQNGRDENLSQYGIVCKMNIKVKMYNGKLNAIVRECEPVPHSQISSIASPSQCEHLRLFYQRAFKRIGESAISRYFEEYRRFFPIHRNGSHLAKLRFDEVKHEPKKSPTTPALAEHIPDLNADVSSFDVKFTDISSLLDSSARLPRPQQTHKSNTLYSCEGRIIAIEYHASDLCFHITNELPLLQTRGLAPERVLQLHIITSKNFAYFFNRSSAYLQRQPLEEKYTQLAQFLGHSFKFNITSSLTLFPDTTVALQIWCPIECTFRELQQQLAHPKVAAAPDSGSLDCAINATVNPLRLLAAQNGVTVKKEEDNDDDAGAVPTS
Assay: fluorescence polarisation

B1: Hsp82 (yeast Hsp90 molecular chaperone) (natural protein)
chain: not shown
For B1, the Kd was ~325 nM.
